{"source": "paper PMC7440162", "about": "(Cell, 2020)", "binders": {"B1": {"name": "IGFBPL1-Fc (Fc fusion)", "chain": "LGIRDVGGRRPKCGPCRPEGCPAPAPCPAPGISALDECGCCARCLGAEGASCGGRAGGRCGPGLVCASQAAGAAPEGTGLCVCAQRGTVCGSDGRSYPSVCALRLRARHTPRAHPGHLHKARDGPCEFAPVVVVPPRSVHNVTGAQVGLSCEVRAVPTPVITWRKVTKSPEGTQALEELPGDHVNIAVQVRGGPSDHEATAWILINPLRKEDEGVYQCHAANMVGEAESHSTVTVLDLSKYRSFHFPAPDDRM", "modifications": "biotin on the AviTag (as SPR ligand)"}, "B2": {"name": "Recombinant Human Angiopoietin-1 Protein (ligand)", "chain": "HIGCSNQRRSPENSGRRYNRIQHGQCAYTFILPEHDGNCRESTTDQYNTNALQRDAPHVEPDFSSQKLQHLEHVMENYTQWLQKLENYIVENMKSEMAQIQQNAVQNHTATMLEIGTSLLSQTAEQTRKLTDVETQVLNQTSRLEIQLLENSLSTYKLEKQLLQQTNEILKIHEKNSLLEHKILEMEGKHKEELDTLKEEKENLQGLVTRQTYIIQELEKQLNRATTNNSVLQKQQLELMDTVHNLVNLCTKEGVLLKGGKREEEKPFRDCADVYQAGFNKSGIYTIYINNMPEPKKVFCNMDVNGGGWTVIQHREDGSLDFQRGWKEYKMGFGNPSGEYWLGNEFIFAITSQRQYMLRIELMDWEGNRAYSQYDRFHIGNEKQNYRLYLKGHTGTAGKQSSLILHGADFSTKDADNDNCMCKCALMLTGGWWFDACGPSNLNGMFYTAGQNHGKLNGIKWHYFKGPSYSLRSTTMMIRPLDF"}, "B3": {"name": "TrkA ECD-Fc (Fc fusion)", "chain": "AAPCPDACCPHGSSGLRCTRDGALDSLHHLPGAENLTELYIENQQHLQHLELRDLRGLGELRNLTIVKSGLRFVAPDAFHFTPRLSRLNLSFNALESLSWKTVQGLSLQELVLSGNPLHCSCALRWLQRWEEEGLGGVPEQKLQCHGQGPLAHMPNASCGVPTLKVQVPNASVDVGDDVLLRCQVEGRGLEQAGWILTELEQSATVMKSGGLPSLGLTLANVTSDLNRKNVTCWAENDVGRAEVSVQVNVSFPASVQLHTAVEMHHWCIPFSVDGQPAPSLRWLFNGSVLNETSFIFTEFLEPAANETVRHGCLRLNQPTHVNNGNYTLLAANPFGQASASIMAAFMDNPFEFNPEDPIPVSFSPVDTNSTSGDPVEKKDETPFGVSVAVG", "modifications": "biotin on the AviTag (in streptavidin-Alexa 647 tetramers)"}, "B4": {"name": "IGFBP7-Fc (Fc fusion)", "chain": "SSSDTCGPCEPASCPPLPPLGCLLGETRDACGCCPMCARGEGEPCGGGGAGRGYCAPGMECVKSRKRRKGKAGAAAGGPGVSGVCVCKSRYPVCGSDGTTYPSGCQLRAASQRAESRGEKAITQVSKGTCEQGPSIVTPPKDIWNVTGAQVYLSCEVIGIPTPVLIWNKVKRGHYGVQRTELLPGDRDNLAIQTRGGPEKHEVTGWVLVSPLSKEDAGEYECHASNSQGQASASAKITVVDALHEIPVKKGEGAEL", "modifications": "biotin on the AviTag (as SPR ligand)"}}, "test_in_all_cases": "SPR", "key": {"IL-6Rα ECD-Fc": {"target": "T1, IL-6Rα ECD-Fc (human, UniProt P08887 20-365, biotin on the AviTag (as SPR ligand))", "T1 sequence": "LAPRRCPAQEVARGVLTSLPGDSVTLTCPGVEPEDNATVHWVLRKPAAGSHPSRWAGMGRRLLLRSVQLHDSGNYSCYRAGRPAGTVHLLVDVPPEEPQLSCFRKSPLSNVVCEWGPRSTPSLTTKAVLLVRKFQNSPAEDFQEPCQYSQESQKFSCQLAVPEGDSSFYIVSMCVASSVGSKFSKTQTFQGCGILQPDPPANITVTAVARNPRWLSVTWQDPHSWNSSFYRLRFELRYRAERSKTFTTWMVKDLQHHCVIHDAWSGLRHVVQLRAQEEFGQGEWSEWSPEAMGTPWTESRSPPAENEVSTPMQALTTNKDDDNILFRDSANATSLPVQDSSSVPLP"}, "human ISLR2 ECD-Fc": {"target": "T2, human ISLR2 ECD-Fc (human, UniProt Q6UXK2 19-589, biotin on the AviTag (as SPR ligand))", "T2 sequence": "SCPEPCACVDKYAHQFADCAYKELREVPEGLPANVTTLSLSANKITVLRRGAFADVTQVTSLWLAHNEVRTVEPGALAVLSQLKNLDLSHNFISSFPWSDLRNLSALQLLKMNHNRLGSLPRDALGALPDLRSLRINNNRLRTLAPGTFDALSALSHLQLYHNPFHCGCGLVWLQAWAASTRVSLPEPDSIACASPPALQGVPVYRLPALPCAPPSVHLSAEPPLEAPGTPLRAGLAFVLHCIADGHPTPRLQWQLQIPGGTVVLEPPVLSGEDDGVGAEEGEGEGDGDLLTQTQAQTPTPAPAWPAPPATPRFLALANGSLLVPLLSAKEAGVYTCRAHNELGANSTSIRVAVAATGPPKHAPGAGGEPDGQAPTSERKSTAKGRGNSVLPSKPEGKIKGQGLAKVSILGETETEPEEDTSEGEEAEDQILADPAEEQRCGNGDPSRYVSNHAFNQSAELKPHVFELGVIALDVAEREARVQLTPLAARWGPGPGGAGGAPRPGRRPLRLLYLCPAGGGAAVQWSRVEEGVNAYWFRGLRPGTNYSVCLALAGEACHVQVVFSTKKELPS"}, "PRTG ECD-Fc": {"target": "T3, PRTG ECD-Fc (human, UniProt Q2VWP7 36-949)", "T3 sequence": "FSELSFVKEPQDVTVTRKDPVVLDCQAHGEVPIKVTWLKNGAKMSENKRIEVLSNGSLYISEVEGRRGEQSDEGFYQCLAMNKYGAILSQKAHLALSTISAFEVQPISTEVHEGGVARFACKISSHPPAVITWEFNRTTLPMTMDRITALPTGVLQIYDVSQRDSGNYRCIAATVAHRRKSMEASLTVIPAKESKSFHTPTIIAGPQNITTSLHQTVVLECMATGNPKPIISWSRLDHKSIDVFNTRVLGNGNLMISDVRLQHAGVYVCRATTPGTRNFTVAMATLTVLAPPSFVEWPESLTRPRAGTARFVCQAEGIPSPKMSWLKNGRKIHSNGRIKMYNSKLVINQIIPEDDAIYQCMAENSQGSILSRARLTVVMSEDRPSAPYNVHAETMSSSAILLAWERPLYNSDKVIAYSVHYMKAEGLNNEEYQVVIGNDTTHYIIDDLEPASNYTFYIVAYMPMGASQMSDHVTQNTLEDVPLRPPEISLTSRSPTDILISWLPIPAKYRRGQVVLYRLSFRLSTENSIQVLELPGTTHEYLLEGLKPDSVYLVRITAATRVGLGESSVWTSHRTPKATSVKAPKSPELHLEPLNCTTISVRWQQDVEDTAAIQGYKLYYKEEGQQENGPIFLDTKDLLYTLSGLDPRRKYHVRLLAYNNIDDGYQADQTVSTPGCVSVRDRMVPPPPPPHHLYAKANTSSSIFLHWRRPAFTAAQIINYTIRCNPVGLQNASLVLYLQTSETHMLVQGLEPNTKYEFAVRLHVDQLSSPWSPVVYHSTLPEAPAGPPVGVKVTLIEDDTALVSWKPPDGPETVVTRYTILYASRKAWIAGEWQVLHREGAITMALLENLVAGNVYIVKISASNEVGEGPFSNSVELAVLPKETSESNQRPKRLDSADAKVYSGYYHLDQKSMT"}, "TIE2 ECD-Fc": {"target": "TIE2 ECD-Fc (human, UniProt Q02763 23-748, biotin on the AviTag (as SPR ligand))", "sequence (Q02763 23-748)": "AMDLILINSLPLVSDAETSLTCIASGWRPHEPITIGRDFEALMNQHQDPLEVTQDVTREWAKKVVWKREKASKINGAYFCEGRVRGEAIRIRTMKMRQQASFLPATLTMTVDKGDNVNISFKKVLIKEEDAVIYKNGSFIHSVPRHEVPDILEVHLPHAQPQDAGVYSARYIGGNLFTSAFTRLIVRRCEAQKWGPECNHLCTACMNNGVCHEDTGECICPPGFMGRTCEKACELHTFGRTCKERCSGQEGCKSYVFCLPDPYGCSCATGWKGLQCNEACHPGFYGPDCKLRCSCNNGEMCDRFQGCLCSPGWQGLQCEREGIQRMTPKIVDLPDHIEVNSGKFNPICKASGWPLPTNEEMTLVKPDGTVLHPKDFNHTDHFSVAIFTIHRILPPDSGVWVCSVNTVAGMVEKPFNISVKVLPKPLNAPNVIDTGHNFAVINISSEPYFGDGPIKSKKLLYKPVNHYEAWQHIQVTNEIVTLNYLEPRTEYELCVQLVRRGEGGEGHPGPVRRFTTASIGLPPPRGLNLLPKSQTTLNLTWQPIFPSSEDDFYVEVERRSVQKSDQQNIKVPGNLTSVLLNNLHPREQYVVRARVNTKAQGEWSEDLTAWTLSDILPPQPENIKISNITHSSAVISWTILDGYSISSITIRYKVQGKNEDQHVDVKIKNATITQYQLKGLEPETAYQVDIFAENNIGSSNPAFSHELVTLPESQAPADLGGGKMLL"}, "TIE1 ECD-Fc": {"target": "T4, TIE1 ECD-Fc (human, UniProt P35590 22-759, biotin on the AviTag (as SPR ligand))", "T4 sequence": "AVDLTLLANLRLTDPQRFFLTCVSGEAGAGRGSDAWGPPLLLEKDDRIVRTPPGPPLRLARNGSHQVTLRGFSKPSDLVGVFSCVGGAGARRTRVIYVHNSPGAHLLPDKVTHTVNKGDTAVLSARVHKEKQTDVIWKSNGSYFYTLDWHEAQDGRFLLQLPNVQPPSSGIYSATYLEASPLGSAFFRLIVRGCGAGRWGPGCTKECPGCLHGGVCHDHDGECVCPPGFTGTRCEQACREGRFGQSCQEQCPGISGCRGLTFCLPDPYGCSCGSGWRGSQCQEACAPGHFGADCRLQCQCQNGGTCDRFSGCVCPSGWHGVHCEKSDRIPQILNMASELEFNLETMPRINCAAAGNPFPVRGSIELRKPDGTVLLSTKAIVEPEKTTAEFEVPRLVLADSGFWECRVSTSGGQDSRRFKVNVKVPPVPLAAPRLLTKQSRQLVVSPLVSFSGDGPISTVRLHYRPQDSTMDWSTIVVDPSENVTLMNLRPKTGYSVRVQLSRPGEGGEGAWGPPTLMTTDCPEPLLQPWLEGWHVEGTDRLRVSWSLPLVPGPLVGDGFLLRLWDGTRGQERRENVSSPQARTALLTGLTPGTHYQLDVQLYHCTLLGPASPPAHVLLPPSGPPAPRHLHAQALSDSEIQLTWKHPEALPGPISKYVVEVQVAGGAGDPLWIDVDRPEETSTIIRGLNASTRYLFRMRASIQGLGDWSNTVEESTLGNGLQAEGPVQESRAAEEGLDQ"}}}
{"binder": "B1", "values": [{"measurement": "binding result", "setting": "IL-6Rα ECD-Fc", "value": "binds"}, {"measurement": "binding result", "setting": "human ISLR2 ECD-Fc", "value": "binds"}, {"measurement": "binding result", "setting": "PRTG ECD-Fc", "value": "binds"}]}
{"binder": "B2", "values": [{"measurement": "binding result", "setting": "TIE2 ECD-Fc", "value": "binds"}]}
{"binder": "B3", "values": [{"measurement": "binding result", "setting": "TIE1 ECD-Fc", "value": "binds"}]}
{"binder": "B4", "values": [{"measurement": "binding result", "setting": "IL-6Rα ECD-Fc", "value": "binds"}, {"measurement": "binding result", "setting": "human ISLR2 ECD-Fc", "value": "binds"}, {"measurement": "binding result", "setting": "PRTG ECD-Fc", "value": "binds"}]}
